Where two headings read alike, the source gives them in different places.
Tests used:
human 4-1BB on cells [1] = target: T1, human 4-1BB on cells (human, UniProt Q07011 24-255); assay: flow cytometry, Flp-In-CHO::hu4-1BB cells
T1 construct: whole, on cells; Stably transfected CHO cells (flow cytometry) and bought Jurkat reporter cells (bioassay); also called Flp-In-CHO::hu4-1BB; human 4-1BB-expressing CHO cells
Procedure: (§1) 5×10⁴ cells per well were incubated for 1 h in ice-cold PBS containing 5% fetal calf serum (PBS-FCS). A dilution series of the tested multimeric proteins (SEQ ID NOs: 38-44 and 46-55), the 4-1BB-targeting lipocalin mutein as included in the multimeric proteins (SEQ ID NO: 64) or the GPC3-targeting lipocalin SEQ ID NO: 90 were added to the cells and incubated for 1 h on ice. Cells were washed twice with PBS and then incubated with a rabbit anti-NGAL or a goat anti-human IgG labeled with fluorescent dye Alexa 488 for 30 min on ice. Human IgG4 isotype (SEQ ID NOs: 29 and 30) and lipocalin mutein SEQ ID NO: 8 were tested as a negative control. Cells were subsequently washed and analyzed using iQue Flow cytometer (Intellicyte Screener). Mean geometric fluorescent signals were plotted and fitted with Graphpad software using nonlinear regression (shared bottom, four parameters, variable slope).
(§2) Target-specific binding of hexavalent trimeric proteins to human 4-1BB-, OX40- or PD-L1-expressing cells was assessed by flow cytometry as described in Example 5, using CHO cells stably transfected with human 4-1BB, human OX40 or human PD-L1 (Flp-In system; Life Technologies).

human OX40 on cells = target: T2, human OX40 on cells (human, UniProt P43489 29-277); assay: flow cytometry, Flp-In-CHO::huOX40 cells
T2 construct: whole, on cells; Stably transfected CHO cells (flow cytometry) and bought Jurkat reporter cells (OX40 bioassay); also called Flp-In-CHO::huOX40; human OX40-expressing CHO cells
T2 sequence (looked up): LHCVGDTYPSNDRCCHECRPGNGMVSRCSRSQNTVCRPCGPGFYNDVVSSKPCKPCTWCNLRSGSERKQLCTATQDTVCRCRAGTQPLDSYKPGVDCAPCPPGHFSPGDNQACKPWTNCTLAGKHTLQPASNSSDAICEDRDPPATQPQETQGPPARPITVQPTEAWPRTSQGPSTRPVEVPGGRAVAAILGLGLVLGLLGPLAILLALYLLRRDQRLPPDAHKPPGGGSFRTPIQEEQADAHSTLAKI
Procedure: as §1, §2

human 4-1BB on cells [2] = target: T1, human 4-1BB on cells; assay: flow cytometry on Flp-In-CHO::huCD137 (human 4-1BB) cells, anti-NGAL detection, GeoMean BL1-H
Procedure: (§3) CHO cells were stably transfected with human 4-1BB, cynomolgus 4-1BB, or a mock control using the Flp-In system (Life Technologies) according to the manufacturer's instructions. Transfected CHO cells were maintained in Ham's F12 medium (Life Technologies) supplemented with 10% Fetal Calf Serum (Biochrom) and 500 μg/ml Hygromycin B (Roth). Cells were cultured in cell culture flasks according to manufacturer's instruction (37° C., 5% CO₂ atmosphere).
as §1

[3] = target: T3, recombinant hu4-1BB-His (human 4-1BB with a C-terminal polyhistidine tag, R&D Systems) (human, UniProt Q07011 24-186); assay: ELISA, hu4-1BB-His coated, detection anti-NGAL-HRP
T3 construct: Bought; not shown: C-terminal polyhistidine tag
Procedure: (§4) Recombinant hu4-1BB-His (human 4-1BB with a C-terminal polyhistidine tag, R&D Systems) at the concentration of 1 μg/mL in PBS was coated overnight on microtiter plates at 4° C. After washing with PBS-0.05% T (PBS supplemented with 0.05% (v/v) Tween 20), the plates were blocked with 2% BSA (w/v) in PBS-0.1% T (PBS supplemented with 0.1% (v/v) Tween 20) for 1 h at room temperature. After washing with 100 μL PBS-0.05% T five times, exemplary multimeric proteins (SEQ ID NOs: 38-44 and 46-53) or 4-1BB-specific lipocalin mutein as included in the multimeric protein (SEQ ID NO: 64) at different concentrations, ranging from 100 to 0.002 nM, were added to the wells and incubated for 1 h at room temperature, followed by another wash step. Bound molecules under study were detected by incubation with 1:1000 diluted anti-NGAL-HRP in PBS-0.1% T-2% BSA. After an additional wash step, fluorogenic HRP substrate (QuantaBlu, Thermo) was added to each well and the fluorescence intensity was detected using a fluorescence microplate reader.
The results of exemplary experiments are depicted in FIG. 2, together with the fit curves resulting from a 1:1 binding sigmoidal fit, where the EC₅₀ value and the maximum signal were free parameters, and the slope was fixed to one. The observed EC₅₀ values toward the hu4-1BB of all tested multimeric proteins were in the sub nanomolar range.

hu4-1BB-Fc (R&D Systems) = target: T4, hu4-1BB-Fc (R&D Systems) (human, UniProt Q07011 24-186); assay: SPR (Biacore 8K), hu4-1BB-Fc captured by anti-human IgG Fc; apparent value, 1:1 fit
T4 construct: Bought; also called human 4-1BB; not shown: human IgG Fc of the bought fusion
Procedure: The anti-human IgG Fc antibody (GE Healthcare) was immobilized on a CM5 sensor chip using standard amine chemistry: the carboxyl groups on the chip were activated using 1-ethyl-3-(3-dimethylaminopropyl)-carbodiimide (EDC) and N-hydroxysuccinimide (NHS). Subsequently, anti-human IgG Fc antibody solution (GE Healthcare) at a concentration of 25 μg/mL in 10 mM sodium acetate (pH 5.0) was applied at a flow rate of 5 μL/min until an immobilization level of 4000-10000 resonance units (RU) was achieved. Residual non-reacted NHS-esters were blocked by passing a solution of 1 M ethanolamine across the surface. The reference channel was treated in an analogous manner. Subsequently, hu4-1BB-Fc (R&D Systems) at 0.3 μg/mL was captured by the anti-human IgG-Fc antibody at the chip surface for 180 s at a flow rate of 10 μL/min.
The binding assay was carried out with a contact time of 180 s, a dissociation time of 1200 s or 3000 s and a flow rate of 30 μL/min. All measurements were performed at 25° C. Lipocalin mutein SEQ ID NO: 64 as included in the multimeric proteins was also tested as […]. […] Prior to the protein measurements, three startup cycles were performed for conditioning purposes. Data were evaluated with Biacore Evaluation software. Double referencing was used and the 1:1 binding model was used to fit the raw data.

[4] = target: T5, cynomolgus 4-1BB on CHO cells (cynomolgus, UniProt A9YYE7 24-254); assay: flow cytometry on Flp-In-CHO::cyCD137 (cynomolgus 4-1BB) cells, anti-NGAL detection, GeoMean BL1-H [Cont'd) B]
T5 construct: also called Flp-In-CHO::cyno4-1BB; cynomolgus 4-1BB-expressing CHO cells
Procedure: as §3, §1

[5] = target: T6, human GPC3 on HepG2 cells (human, UniProt P51654 25-554); assay: flow cytometry, HepG2 cells
T6 construct: whole, on cells; Endogenous GPC3 of the tumor cell line; also called GPC3-positive tumor cell line HepG2; human GPC3-expressing HepG2 cells
Procedure: (§5) GPC3-positive tumor cell line HepG2 was cultured in Dulbecco's Modified Eagle's Medium ([…], Pan Biotech) supplemented with 10% Fetal Calf Serum (Sigma-Aldrich) and in cell culture flasks according to manufacturer's instruction (37° C., 5% CO₂ atmosphere).
as §1

[6] = target: T7, huGPC3-His (human GPC3 with C-terminal polyhistidine tag, R&D Systems) (human, UniProt P51654 25-559, limits assumed); assay: ELISA, huGPC3-His coated, detection anti-NGAL-HRP
T7 construct: Bought; not shown: C-terminal polyhistidine tag
Procedure: as §4
The same ELISA setup was also employed to determine the binding potency of exemplary bispecific multimeric proteins (SEQ ID NO: 54 and SEQ ID NO: 55) to GPC3, where huGPC3-His (human GPC3 with C-terminal polyhistidine tag, R&D Systems) was instead coated on a microtiter plate. The testing agents were similarly titrated and bound agents detected.

[7] = target: T7, huGPC3-His (human GPC3 with C-terminal …); assay: dual-binding ELISA, huGPC3-His coated, detection with biotinylated hu4-1BB-His and Extravidin-HRP
Procedure: Recombinant huGPC3-His (human GPC3 with C-terminal polyhistidine tag, R&D Systems) at the concentration of 1 μg/mL in PBS was coated overnight on microtiter plates at 4° C. After washing with PBS-0.05% T (PBS supplemented with 0.05% (v/v) Tween 20), the plates were blocked with 2% BSA (w/v) in PBS-0.1% T (PBS supplemented with 0.1% (v/v) Tween 20) for 1 h at room temperature. After washing with 100 μL PBS-0.05% T five times, exemplary multimeric proteins (SEQ ID NOs: 54 and 55) at different concentrations, ranging from 100 to 0.002 nM, were added to the wells and incubated for 1 h at room temperature, followed by another wash step. Bound molecules under study were detected by incubation with 1 μg/mL recombinant hu4-1BB-His (biotinylated human 4-1BB with C-terminal polyhistidine tag, Sino Biological) in PBS-0.1% T-2% BSA for 1 h. This step was followed by a further wash step and incubation with 1:5000 diluted Extravidin-HRP in PBS-0.1% T-2% BSA. After an additional wash step, fluorogenic HRP substrate (QuantaBlu, Thermo) was added to each well and the fluorescence intensity was detected using a fluorescence microplate reader.

human 4-1BB on cells [8] = target: T1, human 4-1BB on cells; assay: flow cytometry, Flp-In-CHO::hu4-1BB cells; remark: listed apart in the source
Procedure: as §3, §1

[9] = target: T5, cynomolgus 4-1BB on CHO cells; assay: flow cytometry, Flp-In-CHO::cyno4-1BB cells
Procedure: as §3, §1

human 4-1BB on cells [10] = target: T1, human 4-1BB on cells; assay: cell-based or functional assay
[11] = target: T6, human GPC3 on HepG2 cells; assay: flow cytometry on HepG2 cells (human GPC3), anti-NGAL detection, GeoMean BL1-H [Cont'd) C]
Procedure: as §5, §1

T5 sequence (A9YYE7 entry or part of it limits assumed): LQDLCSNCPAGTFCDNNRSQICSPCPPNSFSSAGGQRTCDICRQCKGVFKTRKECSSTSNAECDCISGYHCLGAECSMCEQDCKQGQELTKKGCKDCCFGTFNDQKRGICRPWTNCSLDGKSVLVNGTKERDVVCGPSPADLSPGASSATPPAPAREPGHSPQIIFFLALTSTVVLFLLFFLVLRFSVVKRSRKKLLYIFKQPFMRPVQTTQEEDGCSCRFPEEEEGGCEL
T1 sequence (Q07011 24-255): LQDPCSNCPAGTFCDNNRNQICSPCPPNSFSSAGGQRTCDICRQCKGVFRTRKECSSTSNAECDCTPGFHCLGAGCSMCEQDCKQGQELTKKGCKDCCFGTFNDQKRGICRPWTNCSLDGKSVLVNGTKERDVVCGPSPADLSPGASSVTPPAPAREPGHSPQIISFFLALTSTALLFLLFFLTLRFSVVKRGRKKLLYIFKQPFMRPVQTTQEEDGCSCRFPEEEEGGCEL
T7 sequence (P51654 25-559 limits assumed): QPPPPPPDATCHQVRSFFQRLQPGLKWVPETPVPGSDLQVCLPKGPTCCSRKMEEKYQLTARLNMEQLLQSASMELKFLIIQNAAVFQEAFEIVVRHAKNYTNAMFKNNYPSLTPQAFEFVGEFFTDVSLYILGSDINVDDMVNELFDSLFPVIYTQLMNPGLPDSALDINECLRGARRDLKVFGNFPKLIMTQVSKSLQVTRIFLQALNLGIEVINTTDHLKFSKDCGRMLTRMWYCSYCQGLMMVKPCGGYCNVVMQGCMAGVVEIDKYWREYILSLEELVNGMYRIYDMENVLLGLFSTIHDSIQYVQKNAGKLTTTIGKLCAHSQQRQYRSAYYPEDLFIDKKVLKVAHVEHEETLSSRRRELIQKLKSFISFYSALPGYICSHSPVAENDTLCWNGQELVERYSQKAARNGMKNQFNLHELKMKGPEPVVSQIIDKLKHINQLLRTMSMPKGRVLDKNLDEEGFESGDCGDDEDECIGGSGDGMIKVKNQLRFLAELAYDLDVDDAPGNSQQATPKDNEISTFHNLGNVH
T6 sequence (P51654 25-554 limits assumed): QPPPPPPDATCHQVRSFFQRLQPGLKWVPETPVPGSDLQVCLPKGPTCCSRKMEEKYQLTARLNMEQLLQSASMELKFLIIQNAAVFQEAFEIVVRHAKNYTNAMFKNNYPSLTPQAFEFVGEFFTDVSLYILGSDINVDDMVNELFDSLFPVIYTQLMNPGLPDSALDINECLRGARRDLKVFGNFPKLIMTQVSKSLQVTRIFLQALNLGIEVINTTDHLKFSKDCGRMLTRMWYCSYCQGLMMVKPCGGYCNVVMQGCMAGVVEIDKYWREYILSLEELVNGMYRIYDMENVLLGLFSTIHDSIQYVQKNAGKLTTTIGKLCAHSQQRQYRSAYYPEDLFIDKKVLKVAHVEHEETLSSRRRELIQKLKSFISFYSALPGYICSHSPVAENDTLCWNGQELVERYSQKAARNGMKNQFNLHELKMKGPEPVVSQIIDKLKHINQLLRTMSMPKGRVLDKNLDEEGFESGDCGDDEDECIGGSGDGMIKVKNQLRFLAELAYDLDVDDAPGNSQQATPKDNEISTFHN

Binder | EC50 (human 4-1BB on cells [1]) [nM] | EC50 (human OX40 on cells) [nM] | EC50 (read off the curve) (human 4-1BB on cells [2]) [nM] | EC50 [3] [nM] | Kd (hu4-1BB-Fc (R&D Systems)) [nM] | koff (hu4-1BB-Fc (R&D Systems)) [s⁻¹] | kon (hu4-1BB-Fc (R&D Systems)) [M⁻¹ s⁻¹] | EC50 (read off the curve) [4] [nM] | EC50 [5] [nM] | EC50 [6] [nM] | EC50 [7] [nM] | EC50 (human 4-1BB on cells [8]) [nM] | EC50 [9] [nM] | EC50 [nM], 4-1BB bioassay (NFκB-luc2/4-1BB Jurkat luminescence), with HepG2 cells (human 4-1BB on cells [10]) [nM] | binding result [11] | binding result [9]
bispecific hexavalent trimeric protein SEQ ID NO: 164 (designed binder) QDSTSDLIPAPPLSKVPLQQNFQDNQFHGKWYVVGQAGNIRLREDKDPIKMMATIYELKEDKSYDVTMVKFDDKKCMYDIWTFVPGSQPGEFTLGKIKSFPGHTSSLVRVVSTNYNQHAMVFFKFVFQNREEFYITLYGRTKELTSELKENFIRFSKSLGLPENHIVFPVPIDQCIDGGGGGSGGGGSGGGGSGVRLWATRQAMLGQVHEVPEGWLIFVAEQEELYVRVQNGFRKVQLEARTPLGGGGSGGGGSGGGGSQDSTSDLIPAPPLSKVPLQQNFQDSQFQGKWYVVGFAGNYRLREDKDPGKMQATIYELREDKAYQVTGVLFPHKKCHDDIVIFVPGSQPGEFILGWIKSDPGITSDLVRVVSTDYNQHAMVFFKWVFQNREWFYITLYGRTKALTSELKENFIRFSKSLGLPEDHIVFPVPIDQCIDGGGSGGAPEQKLISEEDLGSHHHHHHHHHH | 3.03 | 0.71 | – | – | – | – | – | – | – | – | – | – | – | – | – | –
multimeric protein SEQ ID NO: 40 (designed binder) QDSTSDLIPAPPLSKVPLQQNFQDNQFHGKWYVVGQAGNIRLREDKDPIKMMATIYELKEDKSYDVTMVKFDDKKCMYDIWTFVPGSQPGEFTLGKIKSFPGHTSSLVRVVSTNYNQHAMVFFKFVFQNREEFYITLYGRTKELTSELKENFIRFSKSLGLPENHIVFPVPIDQCIDGGGGGSGGGGSGGGGSGGGGSGGGGSGVRLWATRQAMLGQVHEVPEGWLIFVAEQEELYVRVQNGFRKVQLEARTPLGGSGGAPEQKLISEEDLGSHHHHHHHHHH | – | – | ~2 | 0.18 | 1.18 | 9.75e-05 | 82300 | ~1 | – | – | – | – | – | – | – | –
bispecific multimeric protein SEQ ID NO: 54 (designed binder) QVQLVQSGAEVKKPGASVKVSCKASGYTFTDYEMHWVRQAPGQGLEWMGALDPKTGDTAYSQKFKGRVTLTADKSTSTAYMELSSLTSEDTAVYYCTRFYSYTYWGQGTLVTLVSSGGGGSGGGGSGGGGSGGGGSDVVMTQSPLSLPVTPGEPASISCRSSQSLVHSNRNTYLHWYLQKPGQSPQLLIYKVSNRFSGVPDRFSGSGSGTDFTLKISRVEAEDVGVYYCSQNTHVPPTFGQGTKLEIKGGGGSGGGGSGGGGSGVRLWATRQAMLGQVHEVPEGWLIFVAEQEELYVRVQNGFRKVQLEARTPLGGGGSGGGGSGGGGSQDSTSDLIPAPPLSKVPLQQNFQDNQFHGKWYVVGQAGNIRLREDKDPIKMMATIYELKEDKSYDVTMVKFDDKKCMYDIWTFVPGSQPGEFTLGKIKSFPGHTSSLVRVVSTNYNQHAMVFFKFVFQNREEFYITLYGRTKELTSELKENFIRFSKSLGLPENHIVFPVPIDQCIDGGGSGGAPEQKLISEEDLGSHHHHHHHHHH | – | – | – | – | 0.26 | 1.99e-05 | 77900 | – | 3.07 | 0.15 | 0.63 | 5.49 | 5.99 | 0.38 | – | –
4-1BB-specific lipocalin mutein SEQ ID NO: 64 (designed binder, Monomeric hNGAL mutein; also called 4-1BB-targeting lipocalin mutein as included in the multimeric proteins) QDSTSDLIPAPPLSKVPLQQNFQDNQFHGKWYVVGQAGNIRLREDKDPIKMMATIYELKEDKSYDVTMVKFDDKKCMYDIWTFVPGSQPGEFTLGKIKSFPGHTSSLVRVVSTNYNQHAMVFFKFVFQNREEFYITLYGRTKELTSELKENFIRFSKSLGLPENHIVFPVPIDQCIDG | – | – | – | 0.41 | 0.76 | 7.08e-05 | 92700 | – | – | – | – | 3.99 | – | – | no binding (tested: about 200 nM) | no binding
